Laboratory results: the supplement of paper PMC9170038

System: K4 kissing-loop RNA reporter
Test: apparent KD of K4 kissing-loop reporter; higher = weaker reporter binding
Conditions: Eterna round: R107
Protocol: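 RNA-MaP round R107: designed RNA switches with theophylline, tryptophan, arginine or FMN aptamers are transcribed on-chip within common flanks. They are titrated with a labelled K4 kissing-loop RNA reporter in RNA-MaP buffer (100 mM Tris pH 7.5, 80 mM KCl, 4 mM MgCl2), without ligand or with the indicated ligand. Median apparent KD per design.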

[1] = input ligand: theophylline 20 uM
[2] = input ligand: tryptophan 2.4 mM
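Also: bound reporter read as fluorescence of individual clusters on recovered sequencing chips by microscopy, with normalized cluster intensities fitted with a binding model.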

Row | Sequence | apparent KD of K4 kissing-loop reporter (input ligand: FMN 200 uM) [nM] | apparent KD of K4 kissing-loop reporter (input ligand: arginine 13.2 mM) [nM] | apparent KD of K4 kissing-loop reporter (input ligand: none) [nM] | apparent KD of K4 kissing-loop reporter [1] [nM] | apparent KD of K4 kissing-loop reporter [2] [nM]
1 | UGUACCGAGGCAGGAUAUGUCGUCGAAAGACGAAAUGGAGUGAUGUUCCUUAAACUGCGAAAGCAGACAGAAGGGCCUUGGUACU [FmnBS 29 G10+C76] | 132 | 179 | 175 | 202 | 160
2 | UGUACCGAGUAAGGAUAUGUCGUCGAAAGACGAAAUGGAGUGAUGUUCCUUAAACUGCGAAAGCAGACAGAAGGUACUUGGUACU [FmnBS 29 A11+U75] | 139 | 217 | 233 | 224 | 203
3 | UGUACCGAGUCAGGAUAUCAUAAUAAUCCAGUGAUGUUGGAAUAACCAGUACAAAAGUGCUGGCCUUGAGAAGGGACUUGGUACU [FmnBS 4 #SwitchBubble #StaticStem] | 179 | 140 | 177 | 157 | 147
4 | UGUACCGAGUCAGGAUAUGGCGUCGAAAGACGAAAUGGAGUGAUGUUCCUUAUCUGCGAAAGCAGUCCAGAAGGGACUUGGUACU [FmnBS 27 #SwitchBubble #StaticStem #DoubleMagnetSystem] | 134 | 120 | 137 | 123 | 137
5 | UGUACCGAGUCAGGAUAUGGCGUCGAAAGACGAAUCUUAGUGAUGUUAAGGAUCUGCGAAAGCAGUCCAGAAGGGACUUGGUACU [FmnBS 26 U37+A49] | 236 | 422 | 495 | 444 | 475
6 | UGUACCGAGUCAGGAUAUGGCGUCGAAAGACGAAUCUUAGUGAUGUUAGGGAUCUGCGAAAGCAGUCUAGAAGGGACUUGGUACU [FmnBS 26 U37+U68] | 396 | 372 | 439 | 574 | 462
7 | UGUACCGAGUCAGGAUAUGGUAUAGCGGAAACGCACCAGUGAUGUUGGACGCGAAAGCGAUAAAAUCCAGAAGGGACUUGGUACU [FmnBS 20 #SwitchBubble #StaticStem #DoubleMagnetSystem] | 184 | 224 | 209 | 221 | 207
8 | UGUCAUGGAAACAUGAACGUUGAUGUUCGACGAGGACCGGUACGGCCGCCACUCGAGUAAUAGUCAGUGAUGUUGACUUGUUUAA [KL-SSTryp-A form1 sub4] | 49.4 | 101 | 69.1 | 90.9 | 55.6
9 | UGUCAUUGGUCGGCCGCCACUAGACGGACAUAAGUCUGUCAAUAAAGAGUGAUGUUCUUAAAUAAUAGGACCGGGACCGAUGACU [TrypBS 28 #SwitchBubble #StaticStem] | 527 | 458 | 451 | 503 | 201
10 | UGUCAUUGGUCGGCCGCCACUAGGACCGGGUAUAACCCAGUGAUGUUGGUAAAUACGGCCGCCACUAGGACCGGGACCGAUGACU [TrypBS 14 #DoubleAptamer #SwitchBubble #K4Middle] | 263 | 233 | 255 | 280 | 173
11 | UGUCAUUGGUCGGCCGCCACUGGACCGGGUAUAAUCCCAGUGAUGUUGGUAAAAUACGGCCGCCACAGGACCGGGACCGAUGACU [TrypBS 15 #DoubleAptamer #SwitchBubble #K4Middle] | 234 | 208 | 240 | 215 | 134
12 | UGUCAUUGGUCGGCCGCCACUUCAAAGAGAGUGAUGUUCUUAAAGACGGAUCGAAAGAUCUGUCGAAGGACCGGGACCGAUGACU [TrypBS 17 #SwitchBubble #StaticStem] | 1770 | 973 | 1110 | 1200 | 285
13 | UGUCAUUGGUCGGCCGCCACUUCAGGUCAAAGACCAGAGUGAUGUUCUUGCACAAAGUGCUUAAGAAGGACCGGGACCGAUGACU [TrypBS 14 #SwitchBubble #K4Middle] | 256 | 53.5 | 63.3 | 69.5 | 1060
14 | UGUCAUUGGUCGGCCGCCACUUCAUAAAGAGUGAUGUUCUGAAAGACGGAUCGAAAGAUCUGUCGGAGGACCGGGACCGAUGACU [FiskerMod 2 - Jieux - Same State - Tryptophan B] | 1450 | 587 | 1440 | 686 | 397
15 | UGUCAUUGGUCGGCCGCCACUUCGUGUGGAGUGAUGUUUUGUAGGACGGAUCGAAAGAUCUGUCGAAGGACCGGGACCGAUGACU [FiskerMod 19 - Jieux - Same State - Tryptophan B] | 96.8 | 85.8 | 87.6 | 33.5 | 285
16 | UGUCAUUGGUCGGCCGCCACUUGAAGGUCAAAGACCAUAGAGUGAUGUUCUAAGACGAAAGUCACGAGGACCGGGACCGAUGACU [TrypBS 4 #SwitchBubble #K4Middle] | 57.7 | 195 | 114 | 351 | 1130
17 | UGUCAUUGGUCUGAUACCAGAAGAAAUCUGGAGUGAUGUUCCGAGUACGACAAAAGUCGCUUCCCUUGGCAGCAGACCGAUGACU [TheoBS 22 #SwitchBubble 13 #StaticStem] | 235 | 198 | 198 | 161 | 207
18 | UGUCAUUGGUCUGAUACCAGAUGAUAAUCUGGAGUGAUGUUCCAAGAACGACAAAGUCGCAUCCCUUGGCAGCAGACCGAUGACU [TheoBS 18 #SwitchBubble 13 #StaticStem] | 312 | 151 | 236 | 526 | 238
19 | UGUCAUUGGUCUGAUACCAGCUGAUCGGAAACGAUCAUGCUGGAGUGAUGUUCCAGGAAAAGCCCUUGGCAGCAGACCGAUGACU [TheoBS 11 #SwitchBubble #StaticStem] | 474 | 248 | 121 | 405 | 195
20 | UGUCAUUGGUCUGAUACCAGCUUGAUCGGUAAACGAUCUACUGGAGUGAUGUUCCUAAAUAGCCCUUGGCAGCAGACCGAUGACU [TheoBS 4 #SwitchBubble #StaticStem] | 197 | 157 | 180 | 123 | 173
21 | UGUCAUUGGUCUGAUACCAGUUAGACCGAUAAGGUCAAAACUGGAGUGAUGUUCCCAAAUAACCCUUGGCAGCAGACCGAUGACU [TheoBS 5 #SwitchBubble #StaticStem] | 452 | 116 | 185 | 249 | 241

Row | Sequence | apparent KD of K4 kissing-loop reporter (input ligand: FMN 200 uM) [nM] | apparent KD of K4 kissing-loop reporter (input ligand: arginine 13.2 mM) [nM] | apparent KD of K4 kissing-loop reporter (input ligand: none) [nM] | apparent KD of K4 kissing-loop reporter [1] [nM] | apparent KD of K4 kissing-loop reporter [2] [nM]
22 | UGUCAUUGGUCUGAUACCAGUUGAUAAACUGGAGUGAUGUUCCAAUCGAGAUAACUCGACAACCCUUGGCAGCAGACCGAUGACU [TheoBS 15 #SwitchBubble 13 #StaticStem] | 182 | 173 | 176 | 128 | 168
23 | UGUGAACAAAAGUAGAGUGGACCACUAUAGCGAGGACCGGUACGGCCGCCACUCGUAUAUGAAUUCAGUGAUGUUGAAAAGAGCU [whbob_EX_Tryp_A_t10] | 180 | 281 | 231 | 306 | 165
24 | UGUGAUGUGUAGUGUUAUGUUUUGAGGGAUACCAGAGUCUUUUUAUUCCCUUGGCAGCUUGAGUGAUGUUUGAUGCUGUUGUUGU [dvccmullin] | 463 | 342 | 412 | 431 | 339
25 | UGUGCCAACAGCGAUACCAGCCCGGCAGUGAUGUUGCCGGACGGAGUGAUGUUCCGGCAGGGCCCUUGGCAGCGCAGAAGCGCGA [Exclusion Theophylline B Gf 28] | 215 | 222 | 261 | 432 | 202
26 | UGUGCUGUGUAGUGUAAUGUUUUGCGGGAUACCAGAGUCUUUUUAUUCCCUUGGCAGCUUGAGUGAUGUUUGAUGCUGUUCUUGU [bbtbmullin] | 376 | 322 | 356 | 336 | 313
27 | UGUGUUGUAUGACGGUUUGUCACUUAGUAUUAGGAUAUAUAAACAAAUAGAAGGGAUGGCGGAGUGAUGUUCCGCCGGCCGCCAU [FMN A Exl V10] | 92.3 | 92.9 | 80.8 | 94 | 97.6
28 | UGUGUUGUUGUGAUGUUUGGUGUUGUAGGGCAGGAUAUCGUAGAGGCGAGAAGGGCUUUUGUGCGGUAUGAGUGAUGUUUGUAGG [svvsmullin] | 119 | 89.3 | 160 | 134 | 122
29 | UGUGUUGUUUUGAUGUUUGGUGUUGCAUGGCAGGAUAUCGUAGAGGCGAGAAGGGCUUUUGAGCGGUAUGAGUGAUGUUUGUAGG [p,,mmullin] | 526 | 309 | 441 | 354 | 379
30 | UGUGUUGUUUUGAUGUUUGGUGUUGCAUGGCAGGAUAUCGUAGAGGCGAGAAGGGCUUUUGUGCGGUAUGAGUGAUGUUUGUAGG [iihymullin] | 509 | 372 | 509 | 466 | 398
31 | UGUGUUGUUUUGAUGUUUGUUGUAAGUUGGCAGGAUAUCGUAGAGGCGAGAAGGGCUUUUAUGCGUUAUGAGUGAUGUUUGUAGG [ggbgzmullin] | 353 | 241 | 357 | 351 | 319
32 | UGUGUUUACCUGACUCAGUGAUGUUGAGAAGGAGCGUGCAAAUGCACAGGUAGGUCGCUCAACCUAAAUUCAGGUGAGCACUAAA | 321 | 261 | 323 | 234 | 169
33 | UGUGUUUACCUGACUCAGUGAUGUUGAGAAGGAGCGUGCGAAAGCACAGGUAGGUCGCUCAACCUAAAUUCAGGUGAGCACUAAA [#SwitchBubble 10 #K4Early] | 268 | 234 | 341 | 334 | 277
34 | UGUGUUUACCUGACUCAGUGAUGUUGAGAAGGAGCGUGCGAAUGCACAGGUAGGUCGCUCAACCUAAAUUCAGGUGAGCACUAAA | 303 | 76.4 | 408 | 656 | 724
35 | UGUUAUGUAUCAGGAUAUUAGUGAUGUUUGUUUAUGUUAGUGAUGUUGAUAUUUGUUUUAUGUAUUUAAGAAGGGAUUGUGAUGU [xexxmullin] | 74.1 | 23.1 | 55.4 | 35.9 | 57.8
36 | UUAAGGGUCCGAGGAUAUCUCCCAGUGAUGUUGGGCGAUACGGCCCUUAAGACGAAUGGUUGAAGGAGAGAAGGCGGCUCCCGAU [Onatbi] | 119 | 132 | 108 | 126 | 110
37 | UUACCAAGUGAUGUUUGGAAAUAUCCUAGGCAGGAUAUGCGGAAACGCAGAAGGGCCACCUGAUAGUGAAGGAAACUUCGCUAUC [Ex FMN A 1] | 168 | 141 | 152 | 130 | 151
38 | UUACUACCCAGUGAUGUUGGGUAGCGGCGGCGAGGACCGGUACGGCCGCCACUCGGCGCACGGGAGUGAUGUUCCUGGGAAUAUA [Same State Tryptophan A GF 10] | 281 | 187 | 375 | 709 | 254
39 | UUAGAGAUCUCAGGAUAUCAGUGAUGUUGUGAUCCAGAUCUGAGAUAGAAUUCUAUCUCAGAUCAAUGAGAAGGGAGAUCUCAUU [AK4.3 Exc FMN B] | 721 | 1200 | 1490 | 878 | 1090
40 | UUAGAUCAAAGAUCAGUCUUAUCAAGAGCACGAGGACCGGUACGGCCGCCACUCGAGUGAUGUUCGAGAGCUCUUGUGACAAAUU [AK2 EXC Tryptophan A] | 148 | 129 | 157 | 154 | 219
41 | UUAGAUGAUUCAUCAAGAUUGAUGAGCAAACGAGGACCGGUACGGCCGCCACUCGAGUGAUGUUCGAGAAGCUCAUCAAUCAAUU [AK4.2 EXC Tryptophan A] | 166 | 120 | 139 | 127 | 370
42 | UUAGCAGUAUACUGCAAGACCUAUACUGAUACCAGAGUCAAUUGACUCCCUUGGCAGCGGAUCGAGUGAUGUUCGUAAGGUCAUU [AK4.2 SS Theophylline A] | 743 | 647 | 955 | 792 | 685
